Data published in patent US9533026B2, “Polypeptide compounds for inhibiting angiogenesis and tumor growth” (VasGene Therapeutics, Inc., priority 2004, dated 2017).
Entries after “also recorded” stand apart in the source; their conditions may differ.

Experiments:
EphrinB2 = biological target: T1, EphrinB2 (Homo sapiens, UniProt P52799); assay: EphrinB2 (B2-AP) binding assay on affinity magnetic beads
T1 construct: protein fusion of Ephrin B2 ectodomain with placental alkaline phosphatase
Source text: To test whether the B4-HSA fusion property retained the ability of the EphB4 extracellular domain to bind to EphrinB2, the ability of the purified B4-HSA fusion was compared to that of GCF2F, GCF2, GC, CF and B4-Fc fusion, which comprises the extracellular domain of B4 fused to hIgG1 Fc as described in Example 1. Biotinylated or His-tag protein samples were inoculated with the corresponding affinity magnetic beads and B2-AP for an hour at room temperature, before addition of PnPP. Results of binding assays are shown on FIG. 67.
Fractions 1, 2 and 3 of biotinylated and PEGylated sB4 from the SP column purification, corresponding to polypegylated, monopegylated and unpegylated biotinylated sB4, were tested for their ability to bind EphrinB2 using the standard assay. Results of this experiment are shown on FIG. 72.

[1] = In vivo stability in mice after intravenous injection; design: species or system mouse; conditions: for stability in vivo relative to sB4 / EphB4 ectodomain: mice
Protocol: The stability of the purified biotinylated sB4 and sB4-HSA were assayed in vivo. Each of the proteins were intravenously injected into the tail of mice in the amount of 0.5 nmoles per mouse. Blood from the eye of each mouse was taken in time frames of 15 min (0 days), 1, 2, 3 and 6 days. […] of obtained serum was used in binding assay with Ephrin-B2-Alkaline Phosphatase fusion protein and Streptavidin-coated magnetic beads as a solid phase. […] For example, one day after injection, the levels of sB4-HSA in the blood of the mice were 5-fold greater than those of sB4.
Fractions 1, 2 and 3 of biotinylated and PEGylated sB4 from the SP column purification, corresponding to polypegylated, monopegylated and unpegylated biotinylated sB4, were introduced by intravenous injection into mice in the amount of 0.5 nMoles/mouse. Blood from each mouse was taken in time frame of 10 min, 1, 2 and 3 days. […] of obtained serum was used in binding assay with Ephrin-B2-Alkaline Phosphatase fusion protein and Streptavidin-coated magnetic beads as a solid phase. Signals, obtained at 10 min were taken as 100%. The two mice for each protein were of a different strain.

EphB4 [2] = assay: EphB4 expression in PC3 cells on EGFR / IGF-1R blockade (Western blot); type: cell-based, human; conditions: AG1478 1 nM 36 hours, MAB391 2 μg/ml overnight
Protocol: A) Western blot of PC3 cells treated with or without EGFR specific inhibitor AG1478 (1 nM) for 36 hours. […] The membrane was stripped and reprobed with β-actin, which was unaffected. B) Western Blot of triplicate samples of PC3 cells treated with or without IGFR-1 specific neutralizing antibody MAB391 (2 μg/ml; overnight). The membrane was sequentially probed with EphB4, IGFR-1 and β-actin antibodies.

EphB4 [3] = assay: EphB4 expression in HNSCC cell lines on EGFR inhibition (Western blot); type: cell-based, human
Protocol: Western blot of total cell lysates sequentially probed with EphB4 monoclonal antibody, stripped and reprobed with β-actin monoclonal antibody as described for FIG. 39C. B) Effect of the specific EGFR inhibitor AG1478 on EphB4 expression: Western blot of crude cell lysates of SCC15 treated with 0-1000 nM AG 1478 for 24 h in media supplemented with 10% FCS (left) or with […] AG 1478 for 4, 8, 12 or 24 h (right). Shown are membranes sequentially probed for EphB4 and β-actin. C) Effect of inhibition of EGFR signaling on EphB4 expression in SCC cell lines: Cells maintained in growth media containing 10% FCS were treated for 24 hr with 1 μM AG 1478, after which crude cell lysates were analyzed by Western blots of cell lysates sequentially probed with for EGFR, EphB4, ephrin B2 and β-actin antibodies. Specific signal for EGFR was detected at 170 kD and ephrin B2 at 37 kD in addition to EphB4 and β-actin as described in FIG. 1C. β-actin serves as loading and transfer control.

T1 sequence (P52799 28-229 limits assumed): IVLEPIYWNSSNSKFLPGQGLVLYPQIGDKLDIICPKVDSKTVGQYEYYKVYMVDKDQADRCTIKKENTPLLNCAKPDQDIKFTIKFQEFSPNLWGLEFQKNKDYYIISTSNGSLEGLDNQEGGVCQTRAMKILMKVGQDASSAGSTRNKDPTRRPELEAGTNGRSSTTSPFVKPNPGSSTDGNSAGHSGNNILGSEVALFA

| binding activity towards EphrinB2 (EphrinB2) | binding to EphrinB2 compared with the B4-Fc fusion (EphrinB2) | Compound | stability in vivo relative to sB4 / EphB4 ectodomain [1] | levels in the blood relative to sB4 ([1]; one day after injection, i.v. 0.5 nmoles per mouse) | EphB4 level (EphB4 [2]) | total amount of EphB4 (EphB4 [3]; SCC-9, -12, -13 and -71) | total amount of EphB4 (EphB4 [3]; SCC-15 and SCC-25, 24 h, 1 µM) |
| --- | --- | --- | --- | --- | --- | --- | --- |
| retain the ability to bind |  | EphB4 ectodomain fusion to the C-terminus of HSA: EphB4 ectodomain fused to the C-terminus of HSA | enhanced stability |  |  |  |  |
| retain most of its binding activity | superior | B4-HSA: EphB4 ectodomain fused to human serum albumin, mature form SEQ ID NO:19 | superior stability | 5 fold |  |  |  |
|  |  | COc1cc2ncnc(Nc3cccc(Cl)c3)c2cc1OC [AG1478] |  |  | down-regulated; also recorded: Decreased EphB4 signal | no effect | marked loss |
